B1: LINE1-full (parent)
chain: UACGUAGGUGGUUUUCCCCUGAUAGUGCUAAGGGGGCCUGGAAGUUUGGACUGGGCAGAGCUCAACACAGCGUGGCAAAGUGGCUGUGGCUAGACUGCCUCUCUGGAUUCCUCGUCACUCAGCAGGGCAUCUCUGAGAGAAAUGCC

Variants of: B1
Assay: self-cleavage, relative activity (ratio to wild type); higher = more cleavage; in vitro, sequencing; the parent is a self-cleaving ribozyme

Variant	self-cleavage
C113A A117U	1.03
C113U A124U	1.3
U109A U115C	1.43
U109A U115A	1.47
A117G U134C	1.73
U115C U132A	2.4
U115C U132C	1.84
C113U A138G	1.54
C113U A138U	1.21
U112A A136U	1.67
G114A A121U	1.37
U115C U134A	0.9
U108C A117U	1.83
A117U A141U	2.24
A117U A141G	1.1
C110U A117G	2.38
U109C A136G	1.75
U112C U143A	1.59
U112C U143C	1.54
C116U A124G	1.11
C110A G122A	0.9
U108A U134C	1.19
U115A U134C	1.49
C113A A141G	1.23

Variant	self-cleavage
U112C U115A	1.39
A117G A124U	1.25
A117G C123U	1.48
U109A A140G	0.96
G114A U143C	1.02
G114A U143G	1.41
G114A U143A	0.68
U115C A136G	1.83
G114U A141U	1.61
U112C C116G	2.13
U109G U143C	0.87
U109G A140G	0.21
A107G U130G	1.15
A107G U130A	1.74
U108A U132C	1.65
U108A U132A	1.24
U108C C118U	2.01
U112C A117G	1.42
U112C A117U	1.39
U115C A141G	1.76
A107U A124G	1.29
A107U A124U	1.61
U115C A129U	2.01
U115C A129C	1.68

Variant	self-cleavage
G114A A124G	1.5
G114A A124C	1.62
A107U A138U	2.59
C111U U130A	0.93
G114C A142G	1.78
C110A A124G	1.62
A107U U112C	1.84
C113U U143A	1.1
C111U A121C	1.54
U115C G144C	2.13
C110A U130C	1.04
A117G G139U	2.05
U109A G122A	1.63
U109C G127A	1.49
U109C G127U	1.25
A117U A124G	1.3
A107U U132A	1.88
U109A A136U	2.61
U109A A136G	1.4
A117G G144A	0.73
U115C G135A	2.23
U109A U132C	1.37
C116U U130C	0.89
U109G	0.63

Variant	self-cleavage
U109C	1.2
U109A	1.31
C113A A142G	0.47
U115C A117U	1.79
U112A A140G	1.46
A117C A138U	2.44
A117C A138G	2.04
U109C C110A	1.55
U109C A129U	1.97
U109C A129G	1.3
U108C A138U	1.68
U112A U132C	1.42
A117C A136G	1.79
A117G U130C	1.42
A117G U130A	1.85
U115C A124U	1.69
U115C A124G	1.13
U108G U143C	1.14
U108G A140G	0.29
C110U A142G	2.11
A117G C120U	2.18
A117G U119A	1.17
A117G U119C	1.47
A117G U119G	1.87

Variant	self-cleavage
U109A C111U	1.56
U109G U112C	0.19
U109A U134C	1.67
U109A U134A	0.68
U109A U134G	1.25
U109A U112C	1.08
U109A U112A	1.35
U115C U143A	1.79
U115C U143C	1.61
U115C G126A	1.85
C110U A141G	1.4
U108C G137A	0.89
U109C A124U	1.64
U109C A124C	1.41
C113U U132C	0.89
U115A U119C	2.02
U108A A140G	1.58
U115C U130C	2.03
U115C U130A	1.78
U109C A140U	1.15
U109C A140G	0.48
U112C C113U	1.28
U108A G114A	1.09
U108C U112C	1.74

Variant	self-cleavage
U108C U112A	1.94
U112C A141U	1.47
U108A A129U	1.92
U109G A141G	0.93
U109G A141U	1.08
U108C G126A	2.16
A117G A141U	1.69
A117G A141G	1.71
U115A C123A	1.7
U112C G137A	1.17
U112C G137U	0.88
C110G A141G	1.37
C111U G114A	1.12
U112C G122U	1.86
U112C G122C	1.18
U112A C113U	1.6
U112A G114A	0.38
U108C U115A	1.86
U115C G139U	1.79
C111U U134C	2.26
C110U C146U	1.82
C110A A141G	1.84
U109C G137A	1.45
C110U C113A	1.35

Variant	self-cleavage
C113U A136G	1.58
A107G U108A	1.47
A107G U108G	1.53
U115A A138U	1.77
U115A A138G	1.29
U108A C133A	1.42
A107G U112A	1.45
A107G U112C	1.68
C113A C145U	1.25
U109C C128A	1.47
C113U A121U	1.53
U112C A121G	1.71
U112C A121U	1.09
U109C G125U	1.27
C110A U115C	1.47
U109C U112A	2.11
U109C U112C	1.69
U108C A129U	1.89
U108C A129G	1.57
U108C A129C	1.69
C110U G122A	1.09
C110A A121U	1.32
A107U G144A	1.79
U108C U130A	2.75

Variant	self-cleavage
U112A A117U	1.36
U112A A124U	1.61
A117C C128U	1.3
C113U U134C	0.97
C113U U134A	0.47
U115A G127A	1.21
C116U A117G	1.61
U108C A124G	1.47
U108C A124U	1.81
U112C U119C	1.6
U108G U134C	2.7
U109A A129U	2.02
U109C U143C	1.29
U115A A117G	1.61
U109A U119C	1.95
U115G U143C	1.86
A107U C113A	1.68
U115C C146G	1.93
U115C C146U	1.31
G114A U132C	1.45
U109C G122A	1.81
U115A U130C	1.62
C116A A141U	1.47
A107G U143C	1.38

Variant	self-cleavage
U112A U115A	1.4
U112C A138G	1.58
U112C A138C	1.98
G114A U119A	1.26
C113G U143C	1.36
U112G C128U	2.54
A117C U119A	1.77
U112A A129G	0.98
U112A U143A	1.38
U112C U132C	1.28
U115C C145A	1.84
C113A A140G	1.06
A117U A129C	1.23
A117U A129U	1.78
U115A C145U	1.3
U115C C128U	1.4
A107U A140G	1.58
A107U A117C	2.32
A117G G125U	1.47
A117G G125A	0.99
G114U A136G	1.49
G114U A136U	1.23
C113A A121G	1.25
U108C C128U	1.78

Variant	self-cleavage
U108C A140U	1.66
C111U U143C	1.13
U112C A124U	1.21
U108A	1.24
U108G	1.5
U108C	1.64
G114A A140C	1.27
G114A A140U	1.55
G114A A140G	1.14
U108A A138C	1.32
A117U A140G	1.43
U115C G137U	2.16
U115C G137A	1.15
U115C A142C	2.05
U115C A142U	1.56
U112C A140U	1.29
A117G G122U	1.52
U115C C123A	1.49
U109C A117G	1.7
U108C U143A	0.26
U108C U119A	1.53
U115A C131U	1.65
U108A G122U	0.97
U115A A121G	1.47

Variant	self-cleavage
U115A A121U	1.5
A107G C131U	1.83
U115C A138U	1.64
C113U G144A	0.31
U108A U130C	1.51
U108A U119C	1.41
U108A U119A	0.96
U109A C145G	0.98
C116A A138G	1.52
U115A A124G	0.93
U115C G125A	1.82
U115G A121G	1.62
C113U G135A	1.18
C113A	1.01
C113U	0.98
C113G	1.58
A117G A129G	1.32
A117G A129C	1.93
A107G U109A	1.83
U115A A136U	1.52
U109A G125A	1.34
G114C U115C	1.24
U109C U134C	1.21
C113A U143C	0.76

Variant	self-cleavage
A107G U115A	0.95
A107G U115C	1.99
A117C G144U	1.13
A107G G127C	1.72
A107G G127A	1.81
A107U	1.46
U108A U115A	0.6
C111U U115A	1.77
U109C G135A	1.71
C116U	1.29
C116A	1.16
A107G U134C	1.33
A107G U134A	1.45
A117C G139A	1.65
U108A U112C	2.53
U109G A138U	1.07
U109A G139A	1.49
C110U U112C	2.13
U112C A129G	1.42
U115C U119G	2.63
U115C U119A	1.78
A107U U143A	1.48
U108C U134A	2.21
U108C U134C	1.57

Variant	self-cleavage
U108C G125A	1.22
A117G A136U	1.48
A117G A136G	1.66
A117G C133U	2.55
C111U C116A	1.37
G114A A142U	1.56
G114A A142G	1.31
A107G A142G	1.83
U112G A136U	0.88
U112G A136G	2.3
A107G U132C	1.62
U108C A136U	1.93
U109C U115G	1.04
U108G U119C	2.59
U109A A138G	0.7
U108C U132A	2.04
U108C U132C	1.83
C110U A121U	1.43
A107G G126A	1.71
U115A C133U	1.04
C111U A138G	2.01
U108C G139A	0
U112A G144A	1.32
A107G A141G	1.64

Variant	self-cleavage
A107G A141C	1.51
U112C U130G	1.56
U112C U130C	1.61
G114U U134A	1.09
G114A C116U	0.76
U108C G114A	1.71
C116U A142G	1.27
A117G A138G	1.59
A117G A138U	1.13
U115C C116U	1.18
U109C A141G	1.46
U115A A141U	0.53
G114A U130C	1.42
U112A A142G	1.57
U112A A142C	1.46
U109C C146U	1.53
U112C U134G	1.34
G114A A136G	1.28
U108A A124U	1.35
A117U A121G	1.81
A117U A121U	1.57
U115G A129U	1.34
